Reference: article PMC10372695 (Proceedings of the National Academy of Sciences of the …, 2023)
Values joined by “and” are separate entries in the source; they are usually repeats but may differ in a detail not shown here. Equal entries are not always repeated. Where two headings read alike, the source gives them in different places.

How the values were obtained:
[1] = target: the molecule itself; assay: single-molecule fluorescence microscopy with optical tweezers
[2] = target: the molecule itself; assay: as above; remark: listed apart in the source

B1: C-terminal GFP-tagged SV40 LT (natural protein)
chain: MDKVLNREESLQLMDLLGLERSAWGNIPLMRKAYLKKCKEFHPDKGGDEEKMKKMNTLYKKMEDGVKYAHQPDFGGFWDATEIPTYGTDEWEQWWNAFNEENLFCSEEMPSSDDEATADSQHSTPPKKKRKVEDPKDFPSELLSFLSHAVFSNRTLACFAIYTTKEKAALLYKKIMEKYSVTFISRHNSYNHNILFFLTPHRHRVSAINNYAQKLCTFSFLICKGVNKEYLMYSALTRDPFSVIEESLPGGLKEHDFNPEEAEETKQVSWKLVTEYAMETKCDDVLLLLGMYLEFQYSFEMCLKCIKKEQPSHYKYHEKHYANAAIFADSKNQKTICQQAVDTVLAKKRVDSLQLTREQMLTNRFNDLLDRMDIMFGSTGSADIEEWMAGVAWLHCLLPKMDSVVYDFLKCMVYNIPKKRYWLFKGPIDSGKTTLAAALLELCGGKALNVNLPLDRLNFELGVAIDQFLVVFEDVKGTGGESRDLPSGQGINNLDNLRDYLDGSVKVNLEKKHLNKRTQIFPPGIVTMNEYSVPKTLQARFVKQIDFRPKDYLKHCLERSEFLLEKRIIQSGIALLLMLIWYRPVAEFAQSIQSRIVEWKERLDKEFSLSVYQKMKFNVAMGIGVLDWLRNSDDDDEDSQENADKNEDGGEKNMEDSGHETGIDSQSQGSFQAPQSSQSVHDHNQPYHICRGFTCFKKPPTPPPEPET
stoichiometry N [1]: 3 and 4 and 5
stoichiometry N [2]: 6 and 12
